Test results as given in patent US20180044434A1 (PUBLIC UNIVERSITY CORPORATION YOKOHAMA CITY UNIVERSITY, published 2018).

B1: G8 (antibody, V domains shown)
VH: AVTLDESGGGLQTPGGALSLVCKASGFTFSTYAMGWMRQAPGKGLEYVAAIRNDGSWTGYGAAVKGRATILRDNGQSTVRLQLSNLRAEDTGTYYCAKYTGSSGGSIGAWGHGTEVIVS
VL: ASTQPSSVSANLGGTVEITCSGGNRNYYYGWYQQKSPGSAPVTLIYANDKRPSNIPSRFSGSKSGSTGTLTITGVQAEDEAVYFCGTADTGKYVFGAGTTLTVL
notes: Chicken variable regions in a mouse chimeric antibody (IgG1); also called anti-PAD4 antibody G8
B2: G6 (antibody, V domains shown)
VH: AVTLDESGGGLQTPGGALSLVCKASGFTFSSYGMEWVRQAPGKGLEYVAAIRNDGSWTGYGAAVKGRATISRDDGQSTLRLQLNNLRAEDTATYYCAKTTGSSGGSIDAWGHGTEVIVS
VL: ASTQPSSVSANLGETVKITCSGGGNYYYGWYQQKSPGSAPVTLIYANDKRPSNIPSRFSGSKSGSTGTLTITGVQAEDEAVYFCGTADTGKYVFGAGTTLTVL
notes: Chicken variable regions in a mouse chimeric antibody (IgG1); also called anti-PAD4 antibody G6

How the values were obtained:
[1] = target: T1, full-length recombinant mouse PAD4 (mouse, UniProt Q9Z183 1-666); test: ELISA, coated mouse PAD4; antibody 0.0625 ug/mL
T1 construct: mature; Full-length recombinant
T1 sequence (Q9Z183 whole entry): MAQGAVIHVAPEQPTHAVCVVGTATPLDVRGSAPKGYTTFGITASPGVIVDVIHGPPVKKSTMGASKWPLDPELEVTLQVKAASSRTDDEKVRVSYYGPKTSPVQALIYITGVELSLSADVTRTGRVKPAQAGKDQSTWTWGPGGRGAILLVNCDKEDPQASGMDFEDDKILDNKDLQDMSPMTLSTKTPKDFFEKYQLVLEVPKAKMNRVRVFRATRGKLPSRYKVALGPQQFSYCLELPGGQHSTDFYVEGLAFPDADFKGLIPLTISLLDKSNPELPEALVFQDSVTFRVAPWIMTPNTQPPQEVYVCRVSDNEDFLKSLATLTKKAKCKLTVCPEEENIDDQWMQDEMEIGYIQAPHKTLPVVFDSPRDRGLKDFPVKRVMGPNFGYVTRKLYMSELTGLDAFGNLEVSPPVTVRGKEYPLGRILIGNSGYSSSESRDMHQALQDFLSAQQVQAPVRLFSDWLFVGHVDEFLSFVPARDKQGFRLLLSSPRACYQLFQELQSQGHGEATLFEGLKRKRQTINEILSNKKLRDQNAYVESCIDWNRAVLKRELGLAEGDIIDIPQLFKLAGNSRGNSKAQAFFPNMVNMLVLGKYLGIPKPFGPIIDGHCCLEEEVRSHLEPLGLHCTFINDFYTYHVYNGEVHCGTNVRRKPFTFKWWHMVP

[2] = target: T1, full-length recombinant mouse PAD4; test: ELISA, coated mouse PAD4; antibody 1 ug/mL
[3] = target: T2, full-length recombinant human PAD4 (human, UniProt Q9UM07 1-663); test: ELISA, coated human PAD4; antibody 0.0009766 ug/mL
T2 construct: Full-length recombinant; also called peptidylarginine deiminase 4
T2 sequence (Q9UM07 whole entry): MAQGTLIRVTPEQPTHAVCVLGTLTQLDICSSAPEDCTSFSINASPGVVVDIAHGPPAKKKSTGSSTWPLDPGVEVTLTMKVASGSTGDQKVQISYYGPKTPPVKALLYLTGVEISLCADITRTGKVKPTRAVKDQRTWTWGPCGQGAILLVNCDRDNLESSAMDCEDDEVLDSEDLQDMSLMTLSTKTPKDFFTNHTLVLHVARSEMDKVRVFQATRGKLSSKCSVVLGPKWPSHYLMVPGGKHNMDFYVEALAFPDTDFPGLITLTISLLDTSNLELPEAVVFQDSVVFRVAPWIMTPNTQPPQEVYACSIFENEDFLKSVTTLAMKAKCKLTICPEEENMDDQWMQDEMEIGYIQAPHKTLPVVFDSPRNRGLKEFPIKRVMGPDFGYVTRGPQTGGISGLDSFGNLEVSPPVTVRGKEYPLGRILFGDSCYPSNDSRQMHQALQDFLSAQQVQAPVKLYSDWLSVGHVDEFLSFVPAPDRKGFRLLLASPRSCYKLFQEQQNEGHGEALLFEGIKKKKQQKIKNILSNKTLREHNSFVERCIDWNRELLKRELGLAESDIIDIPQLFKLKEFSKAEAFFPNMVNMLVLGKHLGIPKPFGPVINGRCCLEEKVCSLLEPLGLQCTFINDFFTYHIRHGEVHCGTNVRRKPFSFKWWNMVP

[4] = target: T1, full-length recombinant mouse PAD4; test: ELISA, coated mouse PAD4; antibody 0.0039063 ug/mL
[5] = target: T1, full-length recombinant mouse PAD4; test: ELISA, coated mouse PAD4; antibody 0.015625 ug/mL
[6] = target: T1, full-length recombinant mouse PAD4; test: ELISA, coated mouse PAD4; antibody 0.25 ug/mL
[7] = target: T2, full-length recombinant human PAD4; test: ELISA, coated human PAD4; antibody 0.0039063 ug/mL
[8] = target: T3, Ala mutant of TA0096, SEQ ID NO: 37; test: ELISA, coated peptide
T3 peptide: EENMDDQWMQAEMEIGY

[9] = target: T4, Ala mutant of TA0096, SEQ ID NO: 36; test: ELISA, coated peptide
T4 peptide: EENMDDQWMADEMEIGY

[10] = target: T5, Ala mutant of TA0096, SEQ ID NO: 38; test: ELISA, coated peptide
T5 peptide: EENMDDQWMQDAMEIGY

[11] = target: T6, Ala mutant having 3-amino acid substitution, SEQ ID NO: 48; test: ELISA, coated peptide
T6 peptide: EENMDDQWMQDEAAAGY

[12] = target: T7, Ala mutant of TA0096, SEQ ID NO: 30; test: ELISA, coated peptide
T7 peptide: EENADDQWMQDEMEIGY

[13] = target: T8, Ala mutant of TA0096, SEQ ID NO: 42; test: ELISA, coated peptide
T8 peptide: EENMDDQWMQDEMEIAY

[14] = target: T9, Ala mutant of TA0096, SEQ ID NO: 35; test: ELISA, coated peptide
T9 peptide: EENMDDQWAQDEMEIGY

[15] = target: T10, Ala mutant having 3-amino acid substitution, SEQ ID NO: 47; test: ELISA, coated peptide
T10 peptide: EENMDDQWMAAAMEIGY

[16] = target: T11, Ala mutant of TA0096, SEQ ID NO: 28; test: ELISA, coated peptide
T11 peptide: EANMDDQWMQDEMEIGY

[17] = target: T12, Ala mutant of TA0096, SEQ ID NO: 31; test: ELISA, coated peptide
T12 peptide: EENMADQWMQDEMEIGY

[18] = target: T13, Ala mutant of TA0096, SEQ ID NO: 34; test: ELISA, coated peptide
T13 peptide: EENMDDQAMQDEMEIGY

[19] = target: T14, Ala mutant of TA0096, SEQ ID NO: 29; test: ELISA, coated peptide
T14 peptide: EEAMDDQWMQDEMEIGY

[20] = target: T15, Ala mutant having 3-amino acid substitution, SEQ ID NO: 45; test: ELISA, coated peptide
T15 peptide: EENAAAQWMQDEMEIGY

[21] = target: T16, Ala mutant of TA0096, SEQ ID NO: 39; test: ELISA, coated peptide
T16 peptide: EENMDDQWMQDEAEIGY

[22] = target: T17, Ala mutant of TA0096, SEQ ID NO: 33; test: ELISA, coated peptide
T17 peptide: EENMDDAWMQDEMEIGY

[23] = target: T18, Ala mutant of TA0096, SEQ ID NO: 41; test: ELISA, coated peptide
T18 peptide: EENMDDQWMQDEMEAGY

[24] = target: T19, Ala mutant having 3-amino acid substitution, SEQ ID NO: 49; test: ELISA, coated peptide
T19 peptide: EENMDDQWMQDEMEIAA

[25] = target: T20, Ala mutant having 3-amino acid substitution, SEQ ID NO: 44; test: ELISA, coated peptide
T20 peptide: AAAMDDQWMQDEMEIGY

[26] = target: T21, Ala mutant of TA0096, SEQ ID NO: 40; test: ELISA, coated peptide
T21 peptide: EENMDDQWMQDEMAIGY

[27] = target: T22, Ala mutant of TA0096, SEQ ID NO: 43; test: ELISA, coated peptide
T22 peptide: EENMDDQWMQDEMEIGA

[28] = target: T23, TA0096 (peptide antigen corresponding to positions 340 to 356 of PAD4); test: ELISA, coated peptide
T23 peptide: EENMDDQWMQDEMEIGY

[29] = target: T24, Ala mutant of TA0096, SEQ ID NO: 27; test: ELISA, coated peptide
T24 peptide: AENMDDQWMQDEMEIGY

[30] = target: T2, full-length recombinant human PAD4; test: SPR (Biacore T200), antibody captured, human PAD4 analyte
Protocol: Biacore (GE Healthcare, Biacore T200) was carried out to evaluate the affinity of A11 etc., toward human PAD4. A Mouse Antibody Capture kit (GE Healthcare, BR-1008-38) was used for the affinity assay. Specifically, in accordance with the standard protocol provided by the manufacture, NHS/EDC was used and an amine coupling method, in which a free carboxyl group is fixed on a surface of a CM5 chip, was used to immobilize a rabbit anti-mouse polyclonal antibody on the surface of a CM5 chip. Next, A11 etc., were each captured by the rabbit anti-mouse polyclonal antibody. L207 was likewise captured. Then, human PAD4 at each concentration was subjected to Biacore T200 measurement to create a kinetic sensorgram.

Binder	OD 490/630 nm [1]	OD 490/630 nm [2]	OD 490/630 nm [3]	OD 490/630 nm [4]	OD 490/630 nm [5]	OD 490/630 nm [6]	OD 490/630 nm [7]	OD 490/630 nm [8]	OD 490/630 nm [9]	OD 490/630 nm [10]	OD 490/630 nm [11]	OD 490/630 nm [12]	OD 490/630 nm [13]	OD 490/630 nm [14]	OD 490/630 nm [15]	OD 490/630 nm [16]	OD 490/630 nm [17]	OD 490/630 nm [18]	OD 490/630 nm [19]	OD 490/630 nm [20]	also measured
B1	2.22	2.26	0.544	1.42	2.25	2.25	1.34	1.88	1.92	1.91	1.88	1.93	1.86	0.233	1.86	1.94	1.85	0.04	1.91	0.065	OD 490/630 nm [21]: 1.88; OD 490/630 nm [22]: 1.98; OD 490/630 nm [23]: 1.85; OD 490/630 nm [24]: 1.86; OD 490/630 nm [25]: 1.9; OD 490/630 nm [26]: 1.89; OD 490/630 nm [27]: 1.92; OD 490/630 nm [28]: 1.88; OD 490/630 nm [29]: 1.96; Kd [30]: 2.34 nM; koff [30]: 0.000243 s⁻¹; kon [30]: 104000 M⁻¹ s⁻¹
B2	2.16	2.27	0.437	0.55	1.35	2.27	1.16	1.85	1.85	1.92	1.85	1.92	1.87	0.015	1.73	1.99	1.77	0.042	1.95	0.018	OD 490/630 nm [21]: 1.83; OD 490/630 nm [22]: 1.98; OD 490/630 nm [23]: 1.87; OD 490/630 nm [24]: 1.88; OD 490/630 nm [25]: 1.92; OD 490/630 nm [26]: 1.86; OD 490/630 nm [27]: 1.87; OD 490/630 nm [28]: 1.87; OD 490/630 nm [29]: 1.91; Kd [30]: 8.74 nM; koff [30]: 0.000389 s⁻¹; kon [30]: 44500 M⁻¹ s⁻¹
